Our source for the protein stability index values is the supplement of paper PMC10567573.

B1: PPEF2 (parent)
chain: FIPSSHNDRDFLTRIFTEDRFAQD
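Note: lentivirally expressed fusions sorted by FACS into six bins by GFP to DsRed ratio, PSI derived from sequencing read proportions per bin multiplied by bin number.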

In this data set the parent is B1. The experiment in a line: protein stability index of a GFP-peptide fusion (GPS, HEK-293T) (PSI 1-6); higher = more stable. The conditions noted are these: c terminus: a fixed tail appended.
For the variant FIPSSHNDRDFLRRIFTEDRFAQD [T13R], the protein stability index is 1.91. To FIPSSHNDRDFLVRIFTEDRFAQD [T13V] belongs 1.8; to FIPSSHNDRDFLYRIFTEDRFAQD [T13Y], 2.65.

FIPSSHNDRDFLTRIFTEDRFASD [Q23S]: the protein stability index was determined as 2.35. In the case of FIPSSHNDRDFLTRIFTEDRFATD [Q23T] it was 3.01; in that of FIPSSHNDRDFLTRIFTEDRFAVD [Q23V], 2.15; in that of FIPSSHNDRDFLTRIFTEDRFAMD [Q23M], 2.09. To FIPSSHNDRDFLTRIFTEDRFAFD [Q23F] belongs 2.44; to FIPSSHNDRDFLTRIFTEDRFAAD [Q23A], 1.96.

Turning to FIPSSHNDRDFLTRLFTEDRFAQD [I15L], the protein stability index was 1.56. In the case of FIPSSHNDRDFLTRKFTEDRFAQD [I15K], the protein stability index came out at 2.77. To FIPSSHNDRDFLTRSFTEDRFAQD [I15S] belongs 1.84. In the case of FIPSSHNDRDFLTREFTEDRFAQD [I15E] it was 2.44.

For FIPSSHNDRDFLTRINTEDRFAQD [F16N], the protein stability index turned out to be 2.12. In the case of FIPSSHNDRDFLTRIFTEDYFAQD [R20Y] it was 2.37. To FIPSSHNDRDFLTRIFTEDQFAQD [R20Q] belongs 2.15. In the case of FIPSSHNDRDFLTRIFTEDIFAQD [R20I] it was 1.32; in that of FIPSSHNDRDFLTRIFTEDLFAQD [R20L], 2.05; in that of DIPSSHNDRDFLTRIFTEDRFAQD [F1D], 3.89. In the case of NIPSSHNDRDFLTRIFTEDRFAQD [F1N], the protein stability index is 4.05.

For the variant WIPSSHNDRDFLTRIFTEDRFAQD [F1W], the protein stability index turned out to be 3.04. In the case of IIPSSHNDRDFLTRIFTEDRFAQD [F1I], the protein stability index was determined as 3.54.

For the variant FIPSSHNDRDFHTRIFTEDRFAQD [L12H], the protein stability index came out at 2.33. In the case of FIPSSHNDRDFYTRIFTEDRFAQD [L12Y] it was 1.98; in that of FIPSSHNDRDFMTRIFTEDRFAQD [L12M], 1.53; in that of FIPSSHNDRDFATRIFTEDRFAQD [L12A], 2.82. Take FIPSSHNDRDFVTRIFTEDRFAQD [L12V]: the protein stability index stood at 2.86.

Turning to FIPSSHNDRDFRTRIFTEDRFAQD [L12R], the protein stability index was 1.72. In the case of FIPSKHNDRDFLTRIFTEDRFAQD [S5K] it was 1.67; in that of FIPSDHNDRDFLTRIFTEDRFAQD [S5D], 2.67. FIPSIHNDRDFLTRIFTEDRFAQD [S5I]: the protein stability index was determined as 2.04.

Consider FIPSTHNDRDFLTRIFTEDRFAQD [S5T], for which the protein stability index was 2.17. To FIPSSHNDVDFLTRIFTEDRFAQD [R9V] belongs 2.2; to FIPSSHNDNDFLTRIFTEDRFAQD [R9N], 1.76. As to FIPSSHEDRDFLTRIFTEDRFAQD [N7E], the protein stability index is 2.39.

Turning to FIPSSHKDRDFLTRIFTEDRFAQD [N7K], the protein stability index was found to be 2.99. To FIPSSHPDRDFLTRIFTEDRFAQD [N7P] belongs 1.92; to FIPSSHDDRDFLTRIFTEDRFAQD [N7D], 1.56; to FIPSSHYDRDFLTRIFTEDRFAQD [N7Y], 2.95. To FIPSSHRDRDFLTRIFTEDRFAQD [N7R] belongs 2.33. In the case of FIPSSHNDRDFLTRIFTEDRFAQF [D24F] it was 2.83; in that of FIPSSHNDRDFLTRIFTEDRFAQQ [D24Q], 1.27; in that of FIPSSHNDRDFLTRIFTEDRFAQR [D24R], 2.19.

Turning to FIPSSHNDRDFLTRIFTEDRFAQY [D24Y], the protein stability index was found to be 1.9. To FIPSSHNDRDFLTRIFTEDRFAQK [D24K] belongs 1.99; to FIPSSHNDRDFLTRIFTEDRFAQG [D24G], 2.13; to FIPSSHNDRDFLTRIFTEDRFAQV [D24V], 2.79. For FIPSSHNFRDFLTRIFTEDRFAQD [D8F], the protein stability index stood at 2.38.

Regarding FIPSSHNLRDFLTRIFTEDRFAQD [D8L], the protein stability index was 1.52.

With FIPSSHNWRDFLTRIFTEDRFAQD [D8W], the protein stability index turned out to be 2.16. To FIPSSHNHRDFLTRIFTEDRFAQD [D8H] belongs 2.04; to FIPSSHNTRDFLTRIFTEDRFAQD [D8T], 2.1. In the case of FIPSSHNARDFLTRIFTEDRFAQD [D8A] it was 1.89; in that of FIPSSHNDRDFLTIIFTEDRFAQD [R14I], 2.61; in that of FIPSSHNDRDFLTQIFTEDRFAQD [R14Q], 1.93.

On to FIPSSHNDRDFLTSIFTEDRFAQD [R14S], for which the protein stability index was 3.48.

On to FIPSSHNDRDFLTVIFTEDRFAQD [R14V], for which the protein stability index came to 3.04. To FIPSSHNDRDFLTRIFTEKRFAQD [D19K] belongs 2.44; to FIPSSHNDRDFLTRIFTECRFAQD [D19C], 2.12; to FIPSSHNDRDFLTRIFTEARFAQD [D19A], 3.2.

As for FIVSSHNDRDFLTRIFTEDRFAQD [P3V], the protein stability index is 1.97. In the case of FINSSHNDRDFLTRIFTEDRFAQD [P3N] it was 2.25; in that of FIESSHNDRDFLTRIFTEDRFAQD [P3E], 2.82; in that of FIFSSHNDRDFLTRIFTEDRFAQD [P3F], 1.79.

For FIPSSHNDRAFLTRIFTEDRFAQD [D10A], the protein stability index turned out to be 2.69.

Consider FIPSSHNDRSFLTRIFTEDRFAQD [D10S], for which the protein stability index is 2.37. To FIPSSHNDRYFLTRIFTEDRFAQD [D10Y] belongs 2.39. Regarding FIPSSHNDRFFLTRIFTEDRFAQD [D10F], the protein stability index is 2.05. In the case of FIPSSHNDRGFLTRIFTEDRFAQD [D10G] it was 2.46; in that of FIPSSHNDREFLTRIFTEDRFAQD [D10E], 1.96; in that of FIPLSHNDRDFLTRIFTEDRFAQD [S4L], 2.02. On to FIPHSHNDRDFLTRIFTEDRFAQD [S4H], for which the protein stability index stood at 1.76. FHPSSHNDRDFLTRIFTEDRFAQD [I2H]: the protein stability index worked out at 2.06.

On to FFPSSHNDRDFLTRIFTEDRFAQD [I2F], for which the protein stability index turned out to be 3.32. To FKPSSHNDRDFLTRIFTEDRFAQD [I2K] belongs 2.92.

In the case of FDPSSHNDRDFLTRIFTEDRFAQD [I2D], the protein stability index was 4.44. To FIPSSHNDRDMLTRIFTEDRFAQD [F11M] belongs 2.13. In the case of FIPSSHNDRDWLTRIFTEDRFAQD [F11W] it was 1.93; in that of FIPSSHNDRDFLTRIFTEDRMAQD [F21M], 1.87; in that of FIPSSHNDRDFLTRIFTEDRKAQD [F21K], 1.84.

For the variant FIPSSHNDRDFLTRIFTEDRWAQD [F21W], the protein stability index worked out at 2.09. In the case of FIPSSHNDRDFLTRIFTEDRHAQD [F21H] it was 1.87; in that of FIPSSHNDRDFLTRIFTEDRPAQD [F21P], 2.02; in that of FIPSSHNDRDFLTRIFTEDRAAQD [F21A], 1.59.

In the case of FIPSSHNDRDFLTRIFTEDRTAQD [F21T], the protein stability index was 1.75. For FIPSSHNDRDFLTRIFTEDRNAQD [F21N], the protein stability index worked out at 2.54.

With FIPSSHNDRDFLTRIFTMDRFAQD [E18M], the protein stability index turned out to be 2.96. In the case of FIPSSHNDRDFLTRIFTQDRFAQD [E18Q] it was 1.71; in that of FIPSSHNDRDFLTRIFTEDRFIQD [A22I], 1.78. In the case of FIPSSHNDRDFLTRIFTEDRFSQD [A22S] it was 1.63; in that of FIPSSHNDRDFLTRIFTEDRFGQD [A22G], 1.89.

Regarding FIPSSHNDRDFLTRIFTEDRFMQD [A22M], the protein stability index turned out to be 1.8. To FIPSSHNDRDFLTRIFFEDRFAQD [T17F] belongs 1.87.

Regarding FIPSSHNDRDFLTRIFNEDRFAQD [T17N], the protein stability index stood at 1.68.
